Read-outs that look alike come from different tables or passages of the source.
Experiments:
[1] = tested on: T1, ΔCARD caspase-12 (RIK-5), 6-His fusion protein expressed in E. coli
T1 sequence: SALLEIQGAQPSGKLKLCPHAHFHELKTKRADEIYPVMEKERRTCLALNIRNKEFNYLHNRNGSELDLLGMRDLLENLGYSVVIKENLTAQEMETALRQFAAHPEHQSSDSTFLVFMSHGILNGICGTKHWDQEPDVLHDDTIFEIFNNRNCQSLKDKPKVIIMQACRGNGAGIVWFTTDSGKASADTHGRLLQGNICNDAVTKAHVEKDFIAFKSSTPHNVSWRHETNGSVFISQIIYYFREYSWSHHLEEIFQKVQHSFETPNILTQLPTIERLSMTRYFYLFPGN

[2] = tested on: T2, hCaspase-12 (recombinant human caspase-12 containing the Ser-205 to Gly mutation), 6-His fusion protein expressed in E. coli
T2 sequence: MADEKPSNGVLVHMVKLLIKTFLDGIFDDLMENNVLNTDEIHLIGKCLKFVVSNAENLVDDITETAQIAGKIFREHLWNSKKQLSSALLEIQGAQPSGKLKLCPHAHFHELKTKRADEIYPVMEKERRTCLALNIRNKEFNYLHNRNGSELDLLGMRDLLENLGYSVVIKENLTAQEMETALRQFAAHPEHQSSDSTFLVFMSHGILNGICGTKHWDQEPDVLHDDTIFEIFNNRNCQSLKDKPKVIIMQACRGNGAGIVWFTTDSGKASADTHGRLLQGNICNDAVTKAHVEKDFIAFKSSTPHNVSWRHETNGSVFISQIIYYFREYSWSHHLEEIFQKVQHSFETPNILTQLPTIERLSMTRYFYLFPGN

[3] = target: DEVD-R110 substrate (Homogeneous Caspase Assay, Roche Biochemicals); assay: cell-based or functional assay
[4] = target: T3, DEVD-R110 substrate (Homogeneous Caspase Assay, Roche Biochemicals)
T3 chain: DEVD

[5] = target: T4, procaspase-3 immunoprecipitated from SH-EP cell lysates, P42574
T4 chain: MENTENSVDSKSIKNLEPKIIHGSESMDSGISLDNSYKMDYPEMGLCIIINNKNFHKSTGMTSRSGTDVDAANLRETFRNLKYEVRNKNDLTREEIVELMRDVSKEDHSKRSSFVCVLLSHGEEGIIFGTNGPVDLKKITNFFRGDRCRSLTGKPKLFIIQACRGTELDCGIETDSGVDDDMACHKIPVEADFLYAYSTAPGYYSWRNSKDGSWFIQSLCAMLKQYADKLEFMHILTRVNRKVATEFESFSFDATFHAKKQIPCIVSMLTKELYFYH

calpain II (Calbiochem)
cleavage of human caspase-12, Western blot [1]: calpain II cleaves both hCaspase-12 and the ?CARD variant and that this cleavage is calcium dependent
cleavage of human caspase-12, Western blot [2]: calpain II cleaves both hCaspase-12 and the ?CARD variant and that this cleavage is calcium dependent

control (non-caspase protein) preparation
Measured fluorescence intensity (RFU), free rhodamine-110 released from DEVD-R110 [3]: 31 RFU

B1: ΔCARD caspase-12 (RIK-5), 6-His fusion protein expressed in E. coli (protein)
chain: SALLEIQGAQPSGKLKLCPHAHFHELKTKRADEIYPVMEKERRTCLALNIRNKEFNYLHNRNGSELDLLGMRDLLENLGYSVVIKENLTAQEMETALRQFAAHPEHQSSDSTFLVFMSHGILNGICGTKHWDQEPDVLHDDTIFEIFNNRNCQSLKDKPKVIIMQACRGNGAGIVWFTTDSGKASADTHGRLLQGNICNDAVTKAHVEKDFIAFKSSTPHNVSWRHETNGSVFISQIIYYFREYSWSHHLEEIFQKVQHSFETPNILTQLPTIERLSMTRYFYLFPGN
Measured fluorescence intensity (RFU), free rhodamine-110 released from DEVD-R110 [4]: 445 for ?CARD

B2: hCaspase-12 (recombinant human caspase-12 containing the Ser-205 to Gly mutation), 6-His fusion protein expressed in E. coli (protein)
chain: MADEKPSNGVLVHMVKLLIKTFLDGIFDDLMENNVLNTDEIHLIGKCLKFVVSNAENLVDDITETAQIAGKIFREHLWNSKKQLSSALLEIQGAQPSGKLKLCPHAHFHELKTKRADEIYPVMEKERRTCLALNIRNKEFNYLHNRNGSELDLLGMRDLLENLGYSVVIKENLTAQEMETALRQFAAHPEHQSSDSTFLVFMSHGILNGICGTKHWDQEPDVLHDDTIFEIFNNRNCQSLKDKPKVIIMQACRGNGAGIVWFTTDSGKASADTHGRLLQGNICNDAVTKAHVEKDFIAFKSSTPHNVSWRHETNGSVFISQIIYYFREYSWSHHLEEIFQKVQHSFETPNILTQLPTIERLSMTRYFYLFPGN
procaspase-3 processing, Western blot with antibody to full-length caspase-3 [5]: when procaspase-3 was incubated with recombinant human caspase-12 or the ?CARD variant, lower molecular weight bands indicative of cleaved mature subunits were observed
Measured fluorescence intensity (RFU), free rhodamine-110 released from DEVD-R110 [4]: 807 for hCaspase-12
